*1 amine or outer side, *2 acyl side, *3 side chain or, on linkers, in order; H or OH if unused. [ ]: non-standard residue; d: D form. TyrEtNAc = L-tyrosine O-ethyl acetamide, (S)-3-(4-(2-acetamidoethoxy)phenyl)-2-aminopropanoic acid, CC(=O)NCCOc1ccc(C[C@H](N[*:1])C(=O)[*:2])cc1; 3AzaPhe4AcPip = (S)-3-(6-(4-acetylpiperazin-1-yl)pyridin-3-yl)-2-aminopropanoic acid, CC(=O)N1CCN(c2ccc(C[C@H](N[*:1])C(=O)[*:2])cn2)CC1; Pro(trans-4-NH2) = O=C([C@@H]1C[C@@H](N[*:3])CN1[*:1])[*:2]; Trp(βS-Me,4-F) = C[C@@H](c1c[nH]c2cccc(F)c12)[C@H](N)C(=O)O; Bip(4'-COOH) = N[C@@H](Cc1ccc(-c2ccc(C(=O)O)cc2)cc1)C(=O)O; hQ = L-homoglutamine, NC(=O)CCC[C@H](N[*:1])C(=O)[*:2]; 1Nal(3S-Me) = C[C@@H](c1cccc2ccccc12)[C@H](N)C(=O)O; Phe(4-COOH) = N[C@@H](Cc1ccc(C(=O)O)cc1)C(=O)O; h3Pal(5-CN) = N#Cc1cncc(CC[C@H](N)C(=O)O)c1; hTyr = N[C@@H](CCc1ccc(O)cc1)C(=O)O; hCha = N[C@@H](CCC1CCCCC1)C(=O)O; tBuAla = CC(C)(C)C[C@H](N)C(=O)O; dNle = CCCC[C@@H](N)C(=O)O; dOrn = NCCC[C@@H](N)C(=O)O; dNva = CCC[C@@H](N)C(=O)O; dNMeA = CN[C@H](C)C(=O)O; Dab = NCC[C@H](N)C(=O)O; Dap = NC[C@H](N)C(=O)O
Target: Recombinant human IL-1β (BioLegend 579404) (human, UniProt P01584 117-269)
Test: cell-based or functional assay

B1: SEQ ID NO: 170 (Example No. 170) (peptide)
peptide: cyclo([TyrEtNAc]W[Phe(4-COOH)]G[Pro(trans-4-NH2)][Trp(βS-Me,4-F)]D[dNMeA]G[Bip(4'-COOH)]WL[dOrn][hTyr])
SMILES: CC(=O)NCCOc1ccc(C[C@@H]2NC(=O)[C@H](CCc3ccc(O)cc3)NC(=O)[C@@H](CCCN)NC(=O)[C@H](CC(C)C)NC(=O)[C@H](Cc3c[nH]c4ccccc34)NC(=O)[C@H](Cc3ccc(-c4ccc(C(=O)O)cc4)cc3)NC(=O)CNC(=O)[C@@H](C)N(C)C(=O)[C@H](CC(=O)O)NC(=O)[C@H]([C@@H](C)c3c[nH]c4cccc(F)c34)NC(=O)[C@@H]3C[C@@H](N)CN3C(=O)CNC(=O)[C@H](Cc3ccc(C(=O)O)cc3)NC(=O)[C@H](Cc3c[nH]c4ccccc34)NC2=O)cc1
MRC5 IC50: 0.0966 nM

B2: SEQ ID NO: 179 (Example No. 179) (peptide)
peptide: cyclo([3AzaPhe4AcPip]W[Phe(4-COOH)]G[Pro(trans-4-NH2)][1Nal(3S-Me)]D[dNMeA]G[Bip(4'-COOH)]KL[dNle][h3Pal(5-CN)])
SMILES: CCCC[C@H]1NC(=O)[C@H](CC(C)C)NC(=O)[C@H](CCCCN)NC(=O)[C@H](Cc2ccc(-c3ccc(C(=O)O)cc3)cc2)NC(=O)CNC(=O)[C@@H](C)N(C)C(=O)[C@H](CC(=O)O)NC(=O)[C@H]([C@@H](C)c2cccc3ccccc23)NC(=O)[C@@H]2C[C@@H](N)CN2C(=O)CNC(=O)[C@H](Cc2ccc(C(=O)O)cc2)NC(=O)[C@H](Cc2c[nH]c3ccccc23)NC(=O)[C@H](Cc2ccc(N3CCN(C(C)=O)CC3)nc2)NC(=O)[C@H](CCc2cncc(C#N)c2)NC1=O
MRC5 IC50: 0.017 nM

B3: SEQ ID NO: 171 (Example No. 171) (peptide)
peptide: cyclo([TyrEtNAc]W[Phe(4-COOH)]G[Pro(trans-4-NH2)][Trp(βS-Me,4-F)]D[dNMeA]G[Bip(4'-COOH)]WL[dS][hTyr])
SMILES: CC(=O)NCCOc1ccc(C[C@@H]2NC(=O)[C@H](CCc3ccc(O)cc3)NC(=O)[C@@H](CO)NC(=O)[C@H](CC(C)C)NC(=O)[C@H](Cc3c[nH]c4ccccc34)NC(=O)[C@H](Cc3ccc(-c4ccc(C(=O)O)cc4)cc3)NC(=O)CNC(=O)[C@@H](C)N(C)C(=O)[C@H](CC(=O)O)NC(=O)[C@H]([C@@H](C)c3c[nH]c4cccc(F)c34)NC(=O)[C@@H]3C[C@@H](N)CN3C(=O)CNC(=O)[C@H](Cc3ccc(C(=O)O)cc3)NC(=O)[C@H](Cc3c[nH]c4ccccc34)NC2=O)cc1
MRC5 IC50: 0.145 nM

B4: SEQ ID NO: 173 (Example No. 173) (peptide)
peptide: cyclo([TyrEtNAc]W[Phe(4-COOH)]G[Pro(trans-4-NH2)][Trp(βS-Me,4-F)]D[dNMeA]G[Bip(4'-COOH)]WS[dA][TyrEtNAc])
SMILES: CC(=O)NCCOc1ccc(C[C@@H]2NC(=O)[C@H](Cc3ccc(OCCNC(C)=O)cc3)NC(=O)[C@@H](C)NC(=O)[C@H](CO)NC(=O)[C@H](Cc3c[nH]c4ccccc34)NC(=O)[C@H](Cc3ccc(-c4ccc(C(=O)O)cc4)cc3)NC(=O)CNC(=O)[C@@H](C)N(C)C(=O)[C@H](CC(=O)O)NC(=O)[C@H]([C@@H](C)c3c[nH]c4cccc(F)c34)NC(=O)[C@@H]3C[C@@H](N)CN3C(=O)CNC(=O)[C@H](Cc3ccc(C(=O)O)cc3)NC(=O)[C@H](Cc3c[nH]c4ccccc34)NC2=O)cc1
MRC5 IC50: 0.959 nM

B5: SEQ ID NO: 181 (Example No. 181) (peptide)
peptide: cyclo([3AzaPhe4AcPip]W[Phe(4-COOH)]G[Pro(trans-4-NH2)][1Nal(3S-Me)]D[dNMeA]G[Bip(4'-COOH)]K[tBuAla][dA][h3Pal(5-CN)])
SMILES: CC(=O)N1CCN(c2ccc(C[C@@H]3NC(=O)[C@H](CCc4cncc(C#N)c4)NC(=O)[C@@H](C)NC(=O)[C@H](CC(C)(C)C)NC(=O)[C@H](CCCCN)NC(=O)[C@H](Cc4ccc(-c5ccc(C(=O)O)cc5)cc4)NC(=O)CNC(=O)[C@@H](C)N(C)C(=O)[C@H](CC(=O)O)NC(=O)[C@H]([C@@H](C)c4cccc5ccccc45)NC(=O)[C@@H]4C[C@@H](N)CN4C(=O)CNC(=O)[C@H](Cc4ccc(C(=O)O)cc4)NC(=O)[C@H](Cc4c[nH]c5ccccc45)NC3=O)cn2)CC1
MRC5 IC50: 0.015 nM

B6: SEQ ID NO: 176 (Example No. 176) (peptide)
peptide: cyclo([3AzaPhe4AcPip]W[Phe(4-COOH)]G[Pro(trans-4-NH2)][1Nal(3S-Me)]D[dNMeA]G[Bip(4'-COOH)][hQ]L[dA][h3Pal(5-CN)])
SMILES: CC(=O)N1CCN(c2ccc(C[C@@H]3NC(=O)[C@H](CCc4cncc(C#N)c4)NC(=O)[C@@H](C)NC(=O)[C@H](CC(C)C)NC(=O)[C@H](CCCC(N)=O)NC(=O)[C@H](Cc4ccc(-c5ccc(C(=O)O)cc5)cc4)NC(=O)CNC(=O)[C@@H](C)N(C)C(=O)[C@H](CC(=O)O)NC(=O)[C@H]([C@@H](C)c4cccc5ccccc45)NC(=O)[C@@H]4C[C@@H](N)CN4C(=O)CNC(=O)[C@H](Cc4ccc(C(=O)O)cc4)NC(=O)[C@H](Cc4c[nH]c5ccccc45)NC3=O)cn2)CC1
MRC5 IC50: 0.017 nM

B7: SEQ ID NO: 178 (Example No. 178) (peptide)
peptide: cyclo([3AzaPhe4AcPip]W[Phe(4-COOH)]G[Pro(trans-4-NH2)][1Nal(3S-Me)]D[dNMeA]G[Bip(4'-COOH)]KL[dL][h3Pal(5-CN)])
SMILES: CC(=O)N1CCN(c2ccc(C[C@@H]3NC(=O)[C@H](CCc4cncc(C#N)c4)NC(=O)[C@@H](CC(C)C)NC(=O)[C@H](CC(C)C)NC(=O)[C@H](CCCCN)NC(=O)[C@H](Cc4ccc(-c5ccc(C(=O)O)cc5)cc4)NC(=O)CNC(=O)[C@@H](C)N(C)C(=O)[C@H](CC(=O)O)NC(=O)[C@H]([C@@H](C)c4cccc5ccccc45)NC(=O)[C@@H]4C[C@@H](N)CN4C(=O)CNC(=O)[C@H](Cc4ccc(C(=O)O)cc4)NC(=O)[C@H](Cc4c[nH]c5ccccc45)NC3=O)cn2)CC1
MRC5 IC50: 0.019 nM

B8: SEQ ID NO: 174 (Example No. 174) (peptide)
peptide: cyclo([3AzaPhe4AcPip]W[Phe(4-COOH)]G[Pro(trans-4-NH2)][1Nal(3S-Me)]D[dNMeA]G[Bip(4'-COOH)][Dab]L[dA][hCha])
SMILES: CC(=O)N1CCN(c2ccc(C[C@@H]3NC(=O)[C@H](CCC4CCCCC4)NC(=O)[C@@H](C)NC(=O)[C@H](CC(C)C)NC(=O)[C@H](CCN)NC(=O)[C@H](Cc4ccc(-c5ccc(C(=O)O)cc5)cc4)NC(=O)CNC(=O)[C@@H](C)N(C)C(=O)[C@H](CC(=O)O)NC(=O)[C@H]([C@@H](C)c4cccc5ccccc45)NC(=O)[C@@H]4C[C@@H](N)CN4C(=O)CNC(=O)[C@H](Cc4ccc(C(=O)O)cc4)NC(=O)[C@H](Cc4c[nH]c5ccccc45)NC3=O)cn2)CC1
MRC5 IC50: 0.015 nM

B9: SEQ ID NO: 177 (Example No. 177) (peptide)
peptide: cyclo([3AzaPhe4AcPip]W[Phe(4-COOH)]G[Pro(trans-4-NH2)][1Nal(3S-Me)]D[dNMeA]G[Bip(4'-COOH)]KL[dA][hCha])
SMILES: CC(=O)N1CCN(c2ccc(C[C@@H]3NC(=O)[C@H](CCC4CCCCC4)NC(=O)[C@@H](C)NC(=O)[C@H](CC(C)C)NC(=O)[C@H](CCCCN)NC(=O)[C@H](Cc4ccc(-c5ccc(C(=O)O)cc5)cc4)NC(=O)CNC(=O)[C@@H](C)N(C)C(=O)[C@H](CC(=O)O)NC(=O)[C@H]([C@@H](C)c4cccc5ccccc45)NC(=O)[C@@H]4C[C@@H](N)CN4C(=O)CNC(=O)[C@H](Cc4ccc(C(=O)O)cc4)NC(=O)[C@H](Cc4c[nH]c5ccccc45)NC3=O)cn2)CC1
MRC5 IC50: 0.013 nM

B10: SEQ ID NO: 172 (Example No. 172) (peptide)
peptide: cyclo([TyrEtNAc]W[Phe(4-COOH)]G[Pro(trans-4-NH2)][Trp(βS-Me,4-F)]D[dNMeA]G[Bip(4'-COOH)]WS[dA][hTyr])
SMILES: CC(=O)NCCOc1ccc(C[C@@H]2NC(=O)[C@H](CCc3ccc(O)cc3)NC(=O)[C@@H](C)NC(=O)[C@H](CO)NC(=O)[C@H](Cc3c[nH]c4ccccc34)NC(=O)[C@H](Cc3ccc(-c4ccc(C(=O)O)cc4)cc3)NC(=O)CNC(=O)[C@@H](C)N(C)C(=O)[C@H](CC(=O)O)NC(=O)[C@H]([C@@H](C)c3c[nH]c4cccc(F)c34)NC(=O)[C@@H]3C[C@@H](N)CN3C(=O)CNC(=O)[C@H](Cc3ccc(C(=O)O)cc3)NC(=O)[C@H](Cc3c[nH]c4ccccc34)NC2=O)cc1
MRC5 IC50: 0.246 nM

B11: SEQ ID NO: 175 (Example No. 175) (peptide)
peptide: cyclo([3AzaPhe4AcPip]W[Phe(4-COOH)]G[Pro(trans-4-NH2)][1Nal(3S-Me)]D[dNMeA]G[Bip(4'-COOH)][Dap]L[dA][hCha])
SMILES: CC(=O)N1CCN(c2ccc(C[C@@H]3NC(=O)[C@H](CCC4CCCCC4)NC(=O)[C@@H](C)NC(=O)[C@H](CC(C)C)NC(=O)[C@H](CN)NC(=O)[C@H](Cc4ccc(-c5ccc(C(=O)O)cc5)cc4)NC(=O)CNC(=O)[C@@H](C)N(C)C(=O)[C@H](CC(=O)O)NC(=O)[C@H]([C@@H](C)c4cccc5ccccc45)NC(=O)[C@@H]4C[C@@H](N)CN4C(=O)CNC(=O)[C@H](Cc4ccc(C(=O)O)cc4)NC(=O)[C@H](Cc4c[nH]c5ccccc45)NC3=O)cn2)CC1
MRC5 IC50: 0.016 nM

B12: SEQ ID NO: 180 (Example No. 180) (peptide)
peptide: cyclo([3AzaPhe4AcPip]W[Phe(4-COOH)]G[Pro(trans-4-NH2)][1Nal(3S-Me)]D[dNMeA]G[Bip(4'-COOH)]KL[dNva][h3Pal(5-CN)])
SMILES: CCC[C@H]1NC(=O)[C@H](CC(C)C)NC(=O)[C@H](CCCCN)NC(=O)[C@H](Cc2ccc(-c3ccc(C(=O)O)cc3)cc2)NC(=O)CNC(=O)[C@@H](C)N(C)C(=O)[C@H](CC(=O)O)NC(=O)[C@H]([C@@H](C)c2cccc3ccccc23)NC(=O)[C@@H]2C[C@@H](N)CN2C(=O)CNC(=O)[C@H](Cc2ccc(C(=O)O)cc2)NC(=O)[C@H](Cc2c[nH]c3ccccc23)NC(=O)[C@H](Cc2ccc(N3CCN(C(C)=O)CC3)nc2)NC(=O)[C@H](CCc2cncc(C#N)c2)NC1=O
MRC5 IC50: 0.021 nM
